Test system: Escherichia coli TOP10
Test: shrunken log2 fold change of peptide-encoding DNA abundance (4.5 h post-induction vs induction); higher = less antimicrobial activity (less host growth inhibition)
Conditions: time post-induction: 4.5 h; library: site-saturation at positions 5, 18, 19, 20
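Further: peptides expressed intracellularly from a pBAD plasmid library in pooled LB shake-flask culture, induced with 0.3% L-arabinose, DNA abundance read by NGS, three biological replicates, DESeq2 with apeglm shrinkage.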

| Sequence | shrunken log2 fold change |
| --- | --- |
| RRIRLRPPRLPRPRPRPDDEPRP | -0.0861 |
| RRIRLRPPRLPRPRPRPDDSPRP | 0.0276 |
| RRIRLRPPRLPRPRPRPDDWPRP | 0.044 |
| RRIRLRPPRLPRPRPRPDGRPRP | -0.00938 |
| RRIRLRPPRLPRPRPRPDHYPRP | 0.101 |
| RRIRLRPPRLPRPRPRPDKNPRP | -0.0881 |
| RRIRLRPPRLPRPRPRPDKRPRP | -0.175 |
| RRIRLRPPRLPRPRPRPDLGPRP | -0.0612 |
| RRIRLRPPRLPRPRPRPDNIPRP | -0.535 |
| RRIRLRPPRLPRPRPRPDPEPRP | 0.0928 |
| RRIRLRPPRLPRPRPRPDPSPRP | 0.0199 |
| RRIRLRPPRLPRPRPRPDQFPRP | 0.0392 |
| RRIRLRPPRLPRPRPRPDQYPRP | -0.014 |
| RRIRLRPPRLPRPRPRPDVMPRP | -0.269 |
| RRIRLRPPRLPRPRPRPDWCPRP | 0.0707 |
| RRIRLRPPRLPRPRPRPDWRPRP | 0.0715 |
| RRIRLRPPRLPRPRPRPEAQPRP | 0.375 |
| RRIRLRPPRLPRPRPRPECVPRP | 0.148 |
| RRIRLRPPRLPRPRPRPEEMPRP | 0.034 |
| RRIRLRPPRLPRPRPRPEEPPRP | 0.0426 |
| RRIRLRPPRLPRPRPRPEFHPRP | -0.113 |
| RRIRLRPPRLPRPRPRPEFLPRP | -0.108 |
| RRIRLRPPRLPRPRPRPEGWPRP | 0.862 |
| RRIRLRPPRLPRPRPRPEHTPRP | 0.0956 |
| RRIRLRPPRLPRPRPRPEIRPRP | -0.0685 |

| Sequence | shrunken log2 fold change |
| --- | --- |
| RRIRLRPPRLPRPRPRPEKMPRP | -0.35 |
| RRIRLRPPRLPRPRPRPEKNPRP | 0.0916 |
| RRIRLRPPRLPRPRPRPEKPPRP | 0.148 |
| RRIRLRPPRLPRPRPRPEKTPRP | -0.00142 |
| RRIRLRPPRLPRPRPRPEPGPRP | 0.35 |
| RRIRLRPPRLPRPRPRPEQEPRP | -0.104 |
| RRIRLRPPRLPRPRPRPEQQPRP | 0.0529 |
| RRIRLRPPRLPRPRPRPERGPRP | 0.538 |
| RRIRLRPPRLPRPRPRPERWPRP | 0.637 |
| RRIRLRPPRLPRPRPRPERYPRP | -0.0429 |
| RRIRLRPPRLPRPRPRPETEPRP | 0.0833 |
| RRIRLRPPRLPRPRPRPEVEPRP | 0.0199 |
| RRIRLRPPRLPRPRPRPEWYPRP | 0.0934 |
| RRIRLRPPRLPRPRPRPEYAPRP | -0.000852 |
| RRIRLRPPRLPRPRPRPEYPPRP | -0.336 |
| RRIRLRPPRLPRPRPRPEYVPRP | 0.102 |
| RRIRLRPPRLPRPRPRPFAKPRP | -0.118 |
| RRIRLRPPRLPRPRPRPFAMPRP | -0.407 |
| RRIRLRPPRLPRPRPRPFEVPRP | 0.0377 |
| RRIRLRPPRLPRPRPRPFFKPRP | -0.169 |
| RRIRLRPPRLPRPRPRPFGEPRP | 0.084 |
| RRIRLRPPRLPRPRPRPFIWPRP | 0.112 |
| RRIRLRPPRLPRPRPRPFLLPRP | -0.47 |
| RRIRLRPPRLPRPRPRPFNQPRP | -0.122 |
| RRIRLRPPRLPRPRPRPFNTPRP | 0.724 |

| Sequence | shrunken log2 fold change |
| --- | --- |
| RRIRLRPPRLPRPRPRPFPCPRP | 0.0233 |
| RRIRLRPPRLPRPRPRPFPEPRP | -0.0878 |
| RRIRLRPPRLPRPRPRPFQCPRP | 0.000653 |
| RRIRLRPPRLPRPRPRPFQPPRP | 0.113 |
| RRIRLRPPRLPRPRPRPFRIPRP | 0.0742 |
| RRIRLRPPRLPRPRPRPFRNPRP | -0.0827 |
| RRIRLRPPRLPRPRPRPFSVPRP | -0.323 |
| RRIRLRPPRLPRPRPRPFTMPRP | -0.764 |
| RRIRLRPPRLPRPRPRPFTNPRP | 0.0104 |
| RRIRLRPPRLPRPRPRPFTPPRP | -0.265 |
| RRIRLRPPRLPRPRPRPFTSPRP | -0.153 |
| RRIRLRPPRLPRPRPRPFVGPRP | 4.94e-06 |
| RRIRLRPPRLPRPRPRPFVRPRP | 0.00108 |
| RRIRLRPPRLPRPRPRPFWGPRP | -0.507 |
| RRIRLRPPRLPRPRPRPFWLPRP | 0.0573 |
| RRIRLRPPRLPRPRPRPFWNPRP | -0.275 |
| RRIRLRPPRLPRPRPRPFYKPRP | -0.349 |
| RRIRLRPPRLPRPRPRPFYRPRP | -0.295 |
| RRIRLRPPRLPRPRPRPGCHPRP | -0.268 |
| RRIRLRPPRLPRPRPRPGCNPRP | -0.162 |
| RRIRLRPPRLPRPRPRPGDRPRP | -0.0244 |
| RRIRLRPPRLPRPRPRPGDYPRP | -0.0616 |
| RRIRLRPPRLPRPRPRPGEMPRP | 0.0594 |
| RRIRLRPPRLPRPRPRPGERPRP | 0.33 |
| RRIRLRPPRLPRPRPRPGFEPRP | 0.168 |
